Measured values from publication doi:10.1101/2025.11.04.686606.

Biological target: PcoAA14A_dCTR, disordered C-terminal region alone of PcoAA14A (Pycnoporus coccineus)
Test: SEC-MALLS

PcoAA14A_dCTR, disordered C-terminal region alone of PcoAA14A (domain or fragment)
stoichiometry N: 2
